Results reported in doi:10.1101/2020.02.02.931204.

Target: HA-SFPQ (human) (UniProt P23246)
Assay: co-IP

HA-SFPQ (human), sequence (P23246 whole entry): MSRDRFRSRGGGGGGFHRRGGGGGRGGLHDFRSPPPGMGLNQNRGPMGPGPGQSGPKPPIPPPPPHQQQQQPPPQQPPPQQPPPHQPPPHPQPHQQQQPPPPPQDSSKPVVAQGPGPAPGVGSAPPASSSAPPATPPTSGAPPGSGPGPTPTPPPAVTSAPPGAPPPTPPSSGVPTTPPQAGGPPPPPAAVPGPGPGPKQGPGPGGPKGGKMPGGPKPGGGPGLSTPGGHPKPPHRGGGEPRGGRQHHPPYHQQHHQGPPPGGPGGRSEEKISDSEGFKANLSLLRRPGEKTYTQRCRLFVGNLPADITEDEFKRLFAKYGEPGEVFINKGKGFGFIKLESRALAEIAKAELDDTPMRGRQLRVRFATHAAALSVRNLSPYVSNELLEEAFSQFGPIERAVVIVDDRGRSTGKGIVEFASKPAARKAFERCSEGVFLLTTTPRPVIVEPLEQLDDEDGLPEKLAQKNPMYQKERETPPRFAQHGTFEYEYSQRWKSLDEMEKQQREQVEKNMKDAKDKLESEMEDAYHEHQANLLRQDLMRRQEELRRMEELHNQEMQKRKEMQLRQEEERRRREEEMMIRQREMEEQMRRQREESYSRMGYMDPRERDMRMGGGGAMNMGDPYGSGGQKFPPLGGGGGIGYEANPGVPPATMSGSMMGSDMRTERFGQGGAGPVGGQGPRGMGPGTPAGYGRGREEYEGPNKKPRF
Myc-KLC1 ΔTail (domain or fragment), sequence (O88447 whole entry, stated change not applied, the tested form may be a part): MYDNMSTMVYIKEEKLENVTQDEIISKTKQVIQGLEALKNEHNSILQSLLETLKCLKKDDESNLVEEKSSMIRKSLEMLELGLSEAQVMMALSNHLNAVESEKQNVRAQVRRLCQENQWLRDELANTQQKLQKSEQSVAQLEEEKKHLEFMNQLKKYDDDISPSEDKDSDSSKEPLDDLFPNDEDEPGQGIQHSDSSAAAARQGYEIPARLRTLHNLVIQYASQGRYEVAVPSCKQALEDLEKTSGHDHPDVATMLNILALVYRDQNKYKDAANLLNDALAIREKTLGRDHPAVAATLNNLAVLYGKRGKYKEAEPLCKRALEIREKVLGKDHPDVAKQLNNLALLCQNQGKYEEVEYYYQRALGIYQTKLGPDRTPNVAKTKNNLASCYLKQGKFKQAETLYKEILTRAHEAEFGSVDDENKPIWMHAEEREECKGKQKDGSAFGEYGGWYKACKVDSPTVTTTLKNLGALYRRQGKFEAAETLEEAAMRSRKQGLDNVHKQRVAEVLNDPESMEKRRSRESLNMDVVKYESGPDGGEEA

Myc-KLC1 ΔTail (domain or fragment) gave a reduction of binding against WT KLC1 of 50%.
